The values that follow come from PMC4211652 (Biochemistry, 2014).

T1: S100B (rat), Ca2+-loaded (rat, UniProt P04631 1-92)
T1 sequence: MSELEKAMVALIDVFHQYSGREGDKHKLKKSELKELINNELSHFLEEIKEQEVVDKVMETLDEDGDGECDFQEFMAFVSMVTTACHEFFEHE

B1: Ca2+-bound S100B (bovine) covalently modified at Cys84 by SC124 (natural protein)
chain: T1 sequence with M8V, E63S, S79A, V81I
modifications: Cys84 covalently bound to the adduct of SC124 (disulfiram)
B2: Ca2+-bound S100B (bovine) covalently modified at Cys84 by SC1475 (natural protein)
chain: T1 sequence with M8V, E63S, S79A, V81I
modifications: Cys84 covalently bound to SC1475 (3,4-dimethoxydalbergione)
B3: Ca2+-bound S100B (bovine) covalently modified at Cys84 by SBi4172 (natural protein)
chain: T1 sequence with M8V, E63S, S79A, V81I
modifications: Cys84 covalently bound to SBi4172 (chelerythrine); the compound could be modelled in chain B only
B4: Ca2+-bound S100B (bovine) covalently modified at Cys84 by SC1982 (natural protein)
chain: T1 sequence with M8V, E63S, S79A, V81I
modifications: Cys84 covalently bound to SC1982 (Rubescensin A) by Michael addition
B5: Ca2+-bound S100B (bovine) covalently modified at Cys84 by SBi4434 (natural protein)
chain: T1 sequence with M8V, E63S, S79A, V81I
modifications: Cys84 covalently bound to SBi4434 (2,3-bis[(2-hydroxyethyl)thio]-1,4-naphthoquinone), the thiol replacing one thioglycol moiety

Changes are numbered by the printed parent chain. Numbers in names are those of the source. No end group written: not given here.

The first series deals with the molecule itself. Kind of series: crystal structure.
As for B1, the binding result is listed as “binds”.

For the molecule B2, the binding result was “binds”.

On to B3, for which the binding result is “binds”.

Take B4: the binding result is on record as “binds”.

As for B5, the binding result is “binds”.

For the next series, the target named is T1, S100B (rat), Ca2+-loaded. The experiment in a line: fluorescence polarisation. (In general: Fluorescence polarisation rises when a labelled molecule tumbles more slowly, as on binding a larger partner.)
Take TRTKIDWNKILS (also: TAMRA label, position not given here) [TAMRA-labeled peptide TRTK12]: the binding result is on record as “binds”.
